Measurements from US20070092518A1 (published 2007).

Molecular target: T1, human tumor necrosis factor-α (rHuTNF-alpha, Biosource) (human, UniProt P01375 77-233)
T1 construct: Bought recombinant protein coated on ELISA plates; The TNFα of the Biacore assay is not described further; also called TNFα; human TNFα
Assay: solid-phase ELISA, Fab lysate on coated rHuTNF-alpha
Method: The Fab libraries were cloned into pTrcHis2A (Cat. No. V365-20, Invitrogen, Carlsbad, Calif.). Proteins were expressed in E. coli and solid-phase ELISA was used to assess Fab binding to human TNFα. Briefly, 96-well plates were coated overnight at 4° C. with 1 μg/ml of rHuTNF-alpha (Biosource, Camarillo, Calif.) in Carbonate-bicarbonate buffer, pH9.4. After washing in PBS with 0.05% (w/v) Tween-20, the wells were blocked with 1% (w/v) BSA in PBS for 1 hour at room temperature. After washing, plates were incubated with transformed E. coli cell lysate diluted in the assay buffer (1% BSA and 0.05% Tween-20 in 10 mM PBS) for 2 hours at room temperature. Various concentrations of infliximab (0.5, 1 and 2 ng/ml) were used as positive anti-Human Kappa Light Chain Biotin/anti-penta-His Biotin control. Plates were washed and incubated with ImmunoPure Goat Anti-Human Kappa Chain, Biotin Conjugated (Cat. No. 31780, Pierce Biotechnology, Rockford, Ill.) and Penta-His Biotin Conjugate (Cat. No. 34440, QIAGEN, Valencia, Calif.) diluted 1:2000 in the assay buffer for 1 hour at room temperature. Following another washing step, plates were probed for 1 hour at room temperature with 100 μL/well of Streptavidin POD (Cat. No. 1089153, Roche Applied Science, Indianapolis, Ind.) diluted 1:4000 in the assay buffer. Plates were further washed and then incubated with 3,3′,5,5′-tetramentylbenzidine (TMB, Cat. No. 34028, Pierce Biotechnology) for 30 minutes. Substrate development was stopped by addition of 100 μL/well TMB Stop Solution (Cat. No. 50-85-05, KPL, Gaithersburg, Md.) and the absorbance was measured at 450 nm via an automated plate spectrophotometer.

T1 sequence (P01375 77-233 limits assumed): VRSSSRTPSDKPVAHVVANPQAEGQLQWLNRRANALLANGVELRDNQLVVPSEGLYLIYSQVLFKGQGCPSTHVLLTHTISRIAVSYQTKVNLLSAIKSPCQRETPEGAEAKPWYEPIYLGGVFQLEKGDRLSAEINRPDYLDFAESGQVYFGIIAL

| Binder | binding result |
| --- | --- |
| SEQ ID NO 121 (Fab, V domains shown, Fab, E. coli lysate) VH: EVQLVESGGGLVQPGGSLRLSCAASQFTFSNHYMNWVRQAPGKGLEWIGEIRSKSINSATHYAESVKGRFIISRDDNGNDLYLEMNSLKTEDTAEYYCAQNYYGSTYDYWGQGTLVTVS VL: EIVLTQSPDFQSVTPKEKVTITCRASQFVGSSIHWYQQKPDQSPKLLIKYASESMSGVPSRFSGSGSGTDFTFTISSLEAEDAATYYCQQSHSWPFTFGPGTKVDIK | binds |
| SEQ ID NO 22 (Fab, V domains shown, Fab, E. coli lysate) VH: EVQLVESGGGLVQPGGSLRLSCRASGSTFSNHWMNWVRQAPGKGLEWIGEIRSKSSNSATHYAESVKGRFIISRDDNGNSLTLEMNSLKTEDTAEYYCAQNYYGSTYDYWGQGTLVTVS VL: EIVLTQSPDFQSVTPKEKVTITCRASQFVGSSIHWYQQKPDQSPKLLIKYASESMSGVPSRFSGSGSGTDFTFTISSLEAEDAATYYCQQSHSWPFTFGPGTKVDIK | binds |
| SEQ ID NO 21 (Fab, V domains shown, Fab, E. coli lysate) VH: EVQLTESGGGLVQPGGSLRLSCAASQFTFSNHWMNWVRQAPGKGLEWIGEIRSKSIYGATHYAESVKGRFIISRDDNGNDLYLEMNSLKTEDTAEYYCARNYYGSTYDYWGQGTLVTVS VL: EIVLTQSPDFQSVTPKEKVTITCRASQFVGSSIHWYQQKPDQSPKLLIKYASESMSGVPSRFSGSGSGTDFTFTISSLEAEDAATYYCQQSHSWPFTFGPGTKVDIK | binds |
| SEQ ID NO 26 (Fab, V domains shown, Fab, E. coli lysate) VH: EVQLVESGGGLVQPGGSLRLSCRASQFTFSNHYMNWVRQAPGKGLEWIGEIRSKSIYSATHYAESVKGRFIISRDDNKNDLTLEMNSLKTEDTAEYYCARNYYGSTYDYWGQGTLVTVS VL: EIVLTQSPDFQSVTPKEKVTITCRASQFVGSSIHWYQQKPDQSPKLLIKYASESMSGVPSRFSGSGSGTDFTFTISSLEAEDAATYYCQQSHSWPFTFGPGTKVDIK | binds |
| SEQ ID NO 27 (Fab, V domains shown, Fab, E. coli lysate) VH: EVQLVESGGGLVQPGGSLRLSCAASQFIFSNHYMNWVRQAPGKGLEWIGEIRSKSSNGATHYAESVKGRFIISRDDNKNDLYLEMNSLKTEDTAEYYCAQNYYGSTPDYWGQGTLVTVS VL: EIVLTQSPDFQSVTPKEKVTITCRASQFVGSSIHWYQQKPDQSPKLLIKYASESMSGVPSRFSGSGSGTDFTFTISSLEAEDAATYYCQQSHSWPFTFGPGTKVDIK | binds |
| SEQ ID NO 23 (Fab, V domains shown, Fab, E. coli lysate) VH: EVQLTESGGGLVQPGGSLRLSCAASGSIFSNHWMNWVRQAPGKGLEWIGEIRSKSIYGATHYAESVKGRFIISRDDNGTDLYLEMNSLKTEDTAEYYCARNYYGSTYDYWGQGTLVTVS VL: EIVLTQSPDFQSVTPKEKVTITCRASQFVGSSIHWYQQKPDQSPKLLIKYASESMSGVPSRFSGSGSGTDFTFTISSLEAEDAATYYCQQSHSWPFTFGPGTKVDIK | binds |
| SEQ ID NO 5 (Fab, V domains shown, Fab, E. coli lysate) VH: EVQLTESGGGLVQPGGSLRLSCAASQFTFSNHWMNWVRQAPGKGLEWIGEIRSKSINSATHYAESVKGRFIISRDDNKNSLTLEMNSLKTEDTAEYYCARNYYGSTYDYWGQGTLVTVS VL: EIVLTQSPDFQSVTPKEKVTITCRASQFVGSSIHWYQQKPDQSPKLLIKYASESMSGVPSRFSGSGSGTDFTFTISSLEAEDAATYYCQQSHSWPFTFGPGTKVDIK | binds |
| SEQ ID NO 13 (Fab, V domains shown, Fab, E. coli lysate) VH: EVQLTESGGGLVQPGGSLRLSCAASGSIFSNHYMNWVRQAPGKGLEWIGEIRSKSSNSATHYAESVKGRFIISRDDNKTDLYLEMNSLKTEDTAEYYCARNYYGSTYDYWGQGTLVTVS VL: EIVLTQSPDFQSVTPKEKVTITCRASQFVGSSIHWYQQKPDQSPKLLIKYASESMSGVPSRFSGSGSGTDFTFTISSLEAEDAATYYCQQSHSWPFTFGPGTKVDIK | binds |
| SEQ ID NO 18 (Fab, V domains shown, Fab, E. coli lysate) VH: EVQLVESGGGLVQPGGSLRLSCRASQFTFSNHYMNWVRQAPGKGLEWIGEIRSKSSNGATSYAESVKGRFIISRDGNGNSLTLEMNSLKTEDTAEYYCARNYYGSTYDYWGQGTLVTVS VL: EIVLTQSPDFQSVTPKEKVTITCRASQFVGSSIHWYQQKPDQSPKLLIKYASESMSGVPSRFSGSGSGTDFTFTISSLEAEDAATYYCQQSHSWPFTFGPGTKVDIK | binds |
| SEQ ID NO 14 (Fab, V domains shown, Fab, E. coli lysate) VH: EVQLTESGGGLVQPGGSLRLSCAASQFTFSNHWMNWVRQAPGKGLEWIGEIRSKSIYGATHYAESVKGRFIISRDGNGNDLYLEMNSLKTEDTAEYYCARNYYGSTPDYWGQGTLVTVS VL: EIVLTQSPDFQSVTPKEKVTITCRASQFVGSSIHWYQQKPDQSPKLLIKYASESMSGVPSRFSGSGSGTDFTFTISSLEAEDAATYYCQQSHSWPFTFGPGTKVDIK | binds |
| SEQ ID NO 20 (Fab, V domains shown, Fab, E. coli lysate) VH: EVQLVESGGGLVQPGGSLRLSCRASGFTFSNHYMNWVRQAPGKGLEWIGEIRSKSSNSATSYAESVKGRFIISRDDNGNDLTLEMNSLKTEDTAEYYCAQNYYGSTPDYWGQGTLVTVS VL: EIVLTQSPDFQSVTPKEKVTITCRASQFVGSSIHWYQQKPDQSPKLLIKYASESMSGVPSRFSGSGSGTDFTFTISSLEAEDAATYYCQQSHSWPFTFGPGTKVDIK | binds |
| SEQ ID NO 10 (Fab, V domains shown, Fab, E. coli lysate) VH: EVQLTESGGGLVQPGGSLRLSCRASGFIFSNHYMNWVRQAPGKGLEWIGEIRSKSINSATSYAESVKGRFIISRDDNKNDLTLEMNSLKTEDTAEYYCARNYYGSTYDYWGQGTLVTVS VL: EIVLTQSPDFQSVTPKEKVTITCRASQFVGSSIHWYQQKPDQSPKLLIKYASESMSGVPSRFSGSGSGTDFTFTISSLEAEDAATYYCQQSHSWPFTFGPGTKVDIK | binds |
| SEQ ID NO 4 (Fab, V domains shown, Fab, E. coli lysate) VH: EVQLTESGGGLVQPGGSLRLSCRASGFIFSNHWMNWVRQAPGKGLEWIGEIRSKSSYSATSYAESVKGRFIISRDDNKTSLYLEMNSLKTEDTAEYYCAQNYYGSTYDYWGQGTLVTVS VL: EIVLTQSPDFQSVTPKEKVTITCRASQFVGSSIHWYQQKPDQSPKLLIKYASESMSGVPSRFSGSGSGTDFTFTISSLEAEDAATYYCQQSHSWPFTFGPGTKVDIK | binds |
| SEQ ID NO 25 (Fab, V domains shown, Fab, E. coli lysate) VH: EVQLVESGGGLVQPGGSLRLSCRASQFIFSNHYMNWVRQAPGKGLEWIGEIRSKSINSATHYAESVKGRFIISRDGNKTSLYLEMNSLKTEDTAEYYCAQNYYGSTPDYWGQGTLVTVS VL: EIVLTQSPDFQSVTPKEKVTITCRASQFVGSSIHWYQQKPDQSPKLLIKYASESMSGVPSRFSGSGSGTDFTFTISSLEAEDAATYYCQQSHSWPFTFGPGTKVDIK | binds |
| SEQ ID NO 11 (Fab, V domains shown, Fab, E. coli lysate) VH: EVQLTESGGGLVQPGGSLRLSCAASGFIFSNHWMNWVRQAPGKGLEWIGEIRSKSINGATSYAESVKGRFIISRDDNKTSLYLEMNSLKTEDTAEYYCAQNYYGSTYDYWGQGTLVTVS VL: EIVLTQSPDFQSVTPKEKVTITCRASQFVGSSIHWYQQKPDQSPKLLIKYASESMSGVPSRFSGSGSGTDFTFTISSLEAEDAATYYCQQSHSWPFTFGPGTKVDIK | binds |
| SEQ ID NO 8 (Fab, V domains shown, Fab, E. coli lysate) VH: EVQLTESGGGLVQPGGSLRLSCRASGSTFSNHYMNWVRQAPGKGLEWIGEIRSKSINGATHYAESVKGRFIISRDGNGNDLYLEMNSLKTEDTAEYYCAQNYYGSTYDYWGQGTLVTVS VL: EIVLTQSPDFQSVTPKEKVTITCRASQFVGSSIHWYQQKPDQSPKLLIKYASESMSGVPSRFSGSGSGTDFTFTISSLEAEDAATYYCQQSHSWPFTFGPGTKVDIK | binds |
| SEQ ID NO 24 (Fab, V domains shown, Fab, E. coli lysate) VH: EVQLTESGGGLVQPGGSLRLSCAASGSIFSNHWMNWVRQAPGKGLEWIGEIRSKSINGATSYAESVKGRFIISRDDNGNSLTLEMNSLKTEDTAEYYCAQNYYGSTPDYWGQGTLVTVS VL: EIVLTQSPDFQSVTPKEKVTITCRASQFVGSSIHWYQQKPDQSPKLLIKYASESMSGVPSRFSGSGSGTDFTFTISSLEAEDAATYYCQQSHSWPFTFGPGTKVDIK | binds |
| SEQ ID NO 17 (Fab, V domains shown, Fab, E. coli lysate) VH: EVQLTESGGGLVQPGGSLRLSCRASGFTFSNHWMNWVRQAPGKGLEWIGEIRSKSSYSATHYAESVKGRFIISRDDNKTSLYLEMNSLKTEDTAEYYCARNYYGSTPDYWGQGTLVTVS VL: EIVLTQSPDFQSVTPKEKVTITCRASQFVGSSIHWYQQKPDQSPKLLIKYASESMSGVPSRFSGSGSGTDFTFTISSLEAEDAATYYCQQSHSWPFTFGPGTKVDIK | binds |
| SEQ ID NO 7 (Fab, V domains shown, Fab, E. coli lysate) VH: EVQLTESGGGLVQPGGSLRLSCAASQFTFSNHWMNWVRQAPGKGLEWIGEIRSKSSNSATHYAESVKGRFIISRDDNKTDLYLEMNSLKTEDTAEYYCAQNYYGSTYDYWGQGTLVTVS VL: EIVLTQSPDFQSVTPKEKVTITCRASQFVGSSIHWYQQKPDQSPKLLIKYASESMSGVPSRFSGSGSGTDFTFTISSLEAEDAATYYCQQSHSWPFTFGPGTKVDIK | binds |
